# According to doi:10.1101/2020.04.20.051433:
# Biological target: Cpn60 (chloroplast chaperonin) of pea stroma (P. sativum (endogenous in pea chloroplasts))
# Experiment: native gel or EMSA
substance,measurement,value
Plsp1 Δβ1-2 imported into isolated chloroplasts (from UniProt Q8H0W1 68-291) (domain or fragment),reduction of the 700-kDa band against full-length Plsp1,80%
